The test deals with Human PTH1 receptor with a His-tag (human) (UniProt Q03431). Put plainly: QCM biosensor; PTH1R amine coupled to an LNB-carboxyl chip (Attana Cell 200); PTH injected at 4-20 ug/mL, 35 uL, 25 uL/min, dissociation 510 s; 20 °C; 10 mM HEPES, 150 mM NaCl, 0.005% Tween-20, pH 7.4; rate constant distributions (AIDA) and two-site model fitted to the sensorgrams one by one.
Sequence of UniProt Q03431 (Q03431 27-593): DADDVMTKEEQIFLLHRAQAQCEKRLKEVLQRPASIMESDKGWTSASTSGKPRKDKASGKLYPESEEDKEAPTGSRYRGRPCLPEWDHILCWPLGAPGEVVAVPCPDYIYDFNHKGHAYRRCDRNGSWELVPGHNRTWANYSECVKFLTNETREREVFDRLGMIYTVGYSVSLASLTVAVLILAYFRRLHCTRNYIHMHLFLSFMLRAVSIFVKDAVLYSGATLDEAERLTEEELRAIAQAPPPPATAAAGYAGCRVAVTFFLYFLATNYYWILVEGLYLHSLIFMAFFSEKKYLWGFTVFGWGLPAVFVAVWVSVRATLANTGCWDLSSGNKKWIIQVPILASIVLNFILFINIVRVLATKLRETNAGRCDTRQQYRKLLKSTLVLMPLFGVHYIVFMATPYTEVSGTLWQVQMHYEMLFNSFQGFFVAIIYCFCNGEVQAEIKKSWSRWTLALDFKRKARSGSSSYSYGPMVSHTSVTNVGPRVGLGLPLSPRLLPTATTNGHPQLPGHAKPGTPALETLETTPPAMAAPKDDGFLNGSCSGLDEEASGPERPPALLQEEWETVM

The substance parathyroid hormone (1-34) (peptide) gave a log10(ka), both distributions of the RCD (4129 nM injection) of 4; a log10(ka), first cluster (two-site fit) of 4.2; a log10(ka), second cluster (two-site fit) of 3.7; a log10(kd), first cluster (two-site fit) of -0.9. The substance also came in with a log10(kd), one distribution of the RCD (4129 nM injection) of -2; a log10(kd), other distribution of the RCD (4129 nM injection) of -1; a log10(kd), second cluster (two-site fit) of -2.3.

For the origin of these results see PMC6150654.
